Among the data in the supplement of paper PMC10126150 are switch fluorescence ratio values, retold here.

± gives the standard deviation of the averaged measurements.

In the data set the test system is ATP. In words: switch fluorescence ratio, 500 uM ATP over buffer (Cy3 cluster intensity, sum of 5 cycles each) (fold (ratio)); higher = stronger signal-on switching upon ATP binding; sequences stand for … in TCGTCGGCAGCGTCAGATGTGTATAAGAGACAGTTTTTTTTTTTTTTTTTTTTTTTTT…TC. The note with it: aptamer strand: ATP DNA aptamer (quencher-CACCTGGGGGAGTATTGCGGAGGAAGG + anchor), 100 nM annealed; ATP concentration: 500 uM. The procedure, abridged: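 Five buffer/ATP imaging cycles were run on Cy3-labelled switching-strand clusters on a modified Illumina MiSeq flow-cell, with NaOH stripping and re-annealing between cycles. In each cycle, clusters annealed to 100 nM quencher-labelled ATP aptamer were imaged in selection buffer, then after 15 min with 500 uM ATP at 22 °C. Per cluster, the fluorescence ratio is summed target-cycle over summed buffer-cycle Cy3 intensity, averaged per switch-domain sequence. Only clusters within 100-1000 RFU were kept.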
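Further: ATP exposure 15 min at 22 °C before imaging.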

For TTTTGATGCG, the switch fluorescence ratio turned out to be 0.982 ± 0.031.
Then TTTTGATGTT, with 0.988 ± 0.031.
With TTTTGATTGC, the switch fluorescence ratio was 1.03 ± 0.037.
Turning to TTTTGCAGG, the switch fluorescence ratio turned out to be 0.991 ± 0.05.
Consider TTTTGCCCCC, for which the switch fluorescence ratio came out at 1.12 ± 0.14.
Regarding TTTTGCTGTG, the switch fluorescence ratio amounted to 1.01 ± 0.025.
Then TTTTGCTTTC, with 1.14 ± 0.1.
Then TTTTGGAAAC, with 1.11 ± 0.17.
For TTTTGGACCC, the switch fluorescence ratio turned out to be 1.01 ± 0.035.
As to TTTTGGAGAG, the switch fluorescence ratio worked out at 1.01 ± 0.016.
Regarding TTTTGGATAT, the switch fluorescence ratio came out at 1.28 ± 0.42.
For TTTTGGCACG the value was 0.988 ± 0.0014.
Then TTTTGGCGAC, with 0.976 ± 0.027; and TTTTGGCGTC, with 0.994 ± 0.023.
As to TTTTGGCTTA, the switch fluorescence ratio is 0.9945 ± 0.007.
Then TTTTGGGAAC, with 1.02 ± 0.037; and TTTTGGGACT, with 1.03 ± 0.019.
For TTTTGGGAGG the value was 1 ± 0.054.
For TTTTGGGGTT the value was 0.997 ± 0.043; for TTTTGGGTCA, 1.02 ± 0.018.
With TTTTGGTACC, the switch fluorescence ratio was found to be 1.02 ± 0.015.
Regarding TTTTGGTCCT, the switch fluorescence ratio was determined as 1.07 ± 0.1.
For TTTTGGTGGA the value was 0.988 ± 0.014.
On to TTTTGGTTCC, for which the switch fluorescence ratio worked out at 1.01 ± 0.016.
Then TTTTGGTTCG, with 0.987 ± 0.032.
For TTTTGGTTG the value was 0.947 ± 0.045; for TTTTGTAACG, 1 ± 0.034.
Regarding TTTTGTAAGA, the switch fluorescence ratio amounted to 1.03 ± 0.013.
Regarding TTTTGTATTT, the switch fluorescence ratio came out at 0.988 ± 0.035.
As for TTTTGTCATT, the switch fluorescence ratio amounted to 1 ± 0.04.
For TTTTGTCCAT the value was 0.992 ± 0.015; for TTTTGTCGTG, 0.95 ± 0.033; for TTTTGTCTGC, 0.98876 ± 0.00074.
Then TTTTGTGAAG, with 0.963 ± 0.035; and TTTTGTGAGA, with 1.026 ± 0.0075; and TTTTGTGAGT, with 1.01 ± 0.04.
As for TTTTGTGCTG, the switch fluorescence ratio turned out to be 0.984 ± 0.052.
TTTTGTGCTT: the switch fluorescence ratio stood at 1.04 ± 0.074.
On to TTTTGTGGCG, for which the switch fluorescence ratio came out at 1.04 ± 0.033.
As for TTTTGTGGCT, the switch fluorescence ratio came out at 0.98 ± 0.02.
TTTTGTGGTC: the switch fluorescence ratio amounted to 1.02 ± 0.017.
As for TTTTGTGTGC, the switch fluorescence ratio was determined as 1.02 ± 0.022.
Then TTTTGTTCTT, with 0.984 ± 0.012; and TTTTGTTTGA, with 0.995 ± 0.01.
For TTTTTAAGAC the value was 1.08 ± 0.086.
Then TTTTTAATCG, with 1.01 ± 0.032; and TTTTTAATCT, with 0.9902 ± 0.0083.
As for TTTTTAATGA, the switch fluorescence ratio is 1.02 ± 0.052.
Turning to TTTTTACAAG, the switch fluorescence ratio is 1.21 ± 0.3.
For TTTTTACTAT the value was 1.002 ± 0.0057; for TTTTTAGAAA, 0.971 ± 0.011; for TTTTTAGCCA, 1.05 ± 0.024.
Turning to TTTTTAGCCG, the switch fluorescence ratio was 1.04 ± 0.075.
On to TTTTTAGCGA, for which the switch fluorescence ratio was 1.09 ± 0.058.
Take TTTTTAGCTT: the switch fluorescence ratio was determined as 1.04 ± 0.028.
On to TTTTTAGGGC, for which the switch fluorescence ratio stood at 1.02 ± 0.059.
Then TTTTTAGTGC, with 1 ± 0.044; and TTTTTAGTTG, with 1.12 ± 0.41.
Consider TTTTTATAGC, for which the switch fluorescence ratio stood at 1.01 ± 0.044.
For TTTTTATAT the value was 0.983 ± 0.031; for TTTTTATATT, 1.21 ± 0.44; for TTTTTATCA, 0.9798 ± 0.0082.
For TTTTTATCAG the value was 0.977 ± 0.038; for TTTTTATGGA, 1.03 ± 0.027; for TTTTTATGGG, 1.03 ± 0.077.
For TTTTTATTAA the value was 0.989 ± 0.033.
Consider TTTTTATTG, for which the switch fluorescence ratio stood at 1.02 ± 0.018.
Turning to TTTTTCAGCC, the switch fluorescence ratio came to 1.01 ± 0.046.
Then TTTTTCCCCT, with 0.992 ± 0.023; and TTTTTCCGGC, with 1.063 ± 0.0063.
For TTTTTCGACG the value was 1.1 ± 0.21; for TTTTTCGTAT, 1.04 ± 0.044; for TTTTTCTAAC, 0.996 ± 0.016.
Then TTTTTCTATA, with 0.994 ± 0.066; and TTTTTCTATG, with 0.983 ± 0.05.
For TTTTTCTCTT, the switch fluorescence ratio amounted to 0.996 ± 0.021.
For TTTTTCTGGA the value was 0.993 ± 0.021.
Consider TTTTTCTTAT, for which the switch fluorescence ratio came to 1 ± 0.041.
For TTTTTGAACT the value was 1.01 ± 0.037; for TTTTTGAAGA, 0.986 ± 0.046; for TTTTTGAGGG, 1.01 ± 0.04.
As for TTTTTGAGGT, the switch fluorescence ratio amounted to 1 ± 0.025.
In the case of TTTTTGAGTT, the switch fluorescence ratio came out at 0.977 ± 0.032.
Then TTTTTGCGAT, with 0.9982 ± 0.0046; and TTTTTGCGTC, with 1.03 ± 0.059; and TTTTTGGAAC, with 1.01 ± 0.023.
Then TTTTTGGAGC, with 1.01 ± 0.016.
On to TTTTTGGGGC, for which the switch fluorescence ratio was 1.03 ± 0.072.
As for TTTTTGGTGC, the switch fluorescence ratio is 1.04 ± 0.03.
On to TTTTTGTATG, for which the switch fluorescence ratio worked out at 1.02 ± 0.034.
In the case of TTTTTGTCAT, the switch fluorescence ratio was 0.9912 ± 0.0094.
Take TTTTTGTCGG: the switch fluorescence ratio was found to be 0.996 ± 0.026.
For the sequence TTTTTGTGCT, the switch fluorescence ratio was determined as 0.996 ± 0.032.
For the sequence TTTTTGTTAA, the switch fluorescence ratio was 1.01 ± 0.013.
For the sequence TTTTTGTTCC, the switch fluorescence ratio came out at 1.08 ± 0.1.
Consider TTTTTGTTTG, for which the switch fluorescence ratio came to 0.985 ± 0.029.
Take TTTTTTAAAC: the switch fluorescence ratio is 0.996 ± 0.013.
For TTTTTTAAGT the value was 0.995 ± 0.024; for TTTTTTAATG, 1 ± 0.033; for TTTTTTATGA, 1.03 ± 0.027.
Consider TTTTTTATTC, for which the switch fluorescence ratio amounted to 1.15 ± 0.29.
In the case of TTTTTTATTT, the switch fluorescence ratio turned out to be 0.996 ± 0.025.
Take TTTTTTCAGG: the switch fluorescence ratio is 1.03 ± 0.027.
Then TTTTTTCCCG, with 1.09 ± 0.11; and TTTTTTCCGG, with 1.21 ± 0.17.
On to TTTTTTCCGT, for which the switch fluorescence ratio stood at 1.07 ± 0.16.
For the sequence TTTTTTCCTG, the switch fluorescence ratio stood at 0.989 ± 0.011.
As for TTTTTTCGTT, the switch fluorescence ratio is 0.988 ± 0.022.
For the sequence TTTTTTCTGG, the switch fluorescence ratio amounted to 1 ± 0.091.
Regarding TTTTTTCTTC, the switch fluorescence ratio is 1.04 ± 0.011.
For TTTTTTGCCG the value was 1.05 ± 0.14; for TTTTTTGCGA, 1.06 ± 0.079.
For TTTTTTGCGC the value was 1.19 ± 0.29; for TTTTTTGCGT, 0.987 ± 0.047; for TTTTTTGCTC, 1.02 ± 0.033.
As for TTTTTTGGTA, the switch fluorescence ratio worked out at 1.01 ± 0.036.
For TTTTTTGGTC the value was 1.03 ± 0.037; for TTTTTTTACG, 1.06 ± 0.041.
For TTTTTTTAGC, the switch fluorescence ratio stood at 1.03 ± 0.064.
With TTTTTTTCAA, the switch fluorescence ratio turned out to be 1.01 ± 0.02.
Then TTTTTTTGAA, with 0.979 ± 0.02; and TTTTTTTGAC, with 1.01 ± 0.038.
For the sequence TTTTTTTGGT, the switch fluorescence ratio came out at 0.996 ± 0.028.
In the case of TTTTTTTTCT, the switch fluorescence ratio worked out at 1.02 ± 0.067.
